Data on 20 sequences can be found in the DeepSol protein solubility set.

The nature of the series: soluble on expression in E. coli; label from the status in PepcDB or PDB records.
Take “MGSDKIHHHHHHMVKLYKEIINLIDNHQATMVEQLHQFCEINSGTTNLTGLAIMAETLCSAFKPIADTTELITLPPLSVIDMTGNTVMQSCGDVLFISKRPHLKRRILLSGHMDTVYSASNPFQKLSYLDANQINGPGVADMKGGLIVILHALAAFENTRFAEDMGWDVLINSDEEIGSPTSGSLFNKLAHRYQAALVYEPAMTPNGTLAKNRKGSGKLTLVATGRAAHAGRAFDEGRNAICYLAEAITAVHALNGQKNGVTINVGKIAGGEALNVVPDKAVAQLDIRISLPEDEIWVRNELNKIIKQLERPDYSLNVHGTFGRPVKRICAGTERLFHRIQKIGEALGLTIDWKDSGGCCDGNNLAHYGLPVLDTLGVRGGNIHSSDEYILLDSLSERAALSALLLIDLAQGGLEDLIK”: the “soluble on expression in E. coli” value was “not soluble”. Under “MGSDKIHHHHHHVYNEFFHLRTKPFELLPDPDFLYPSKAHRKALAYFEYGLSERSGFILLTGEVGSGKTTLIREMLKRDLGRMVLSKVFNTRVDSTQLVAMINDDFGLETAGRDKMVMLRDLNDFLIDQYAAGRRAVLVIDEAQNLSQELLEEVRMLSNLETDSAKLLQIILVGQPELRDLLRSPALVQLRQRIQVHCHIAPLSQEELREYVLFRLERAGNRDAMEWGEGVFGLMHEATRGIPRLVNILCDYVLLDAYAAGRRSINSAELQDLLAELDFERQFWPVDETSAPAPAAEQQRRTAVRRDASSVARRMMLMLQDLGQRLDVLERGYEKSGPDMLADMAERLGALEKRVTVLAGRVESLHAERMQRGAAPQVQPYRQKPERRKGWFRRVFGGD” stands “not soluble”; under “MGSDKIHHHHHHMILSDPRFVALSNWLYQYFGDKVAINLICGDASFRRYFRLHHQGIDYIVSDSPIDLVPIAPFLAMAKAYQHAGLLVPEVLATCNDYGFVLQTDVGELQLLSVLNKDNVTDYYKQALNLLPVIATVTETDNGPLADYDDTFVARELAIFVDWLLKEHLDYVLTDNEQQMIATTFSALTDNVLAQPKVGMHRDYHSRNLLINDQALAVIDFQDAVHGPVTYDAVSLLRDCYVRWPDDIVNHLMRYHYQLAIAHQLIDENVDFATYTKWFDLMGLQRHIKAAGIFARLYHRDGKRGYLADIPLTLQYVADIGIKYPQIADFSLWIHKVILPLVNHKNTHEVVSEA”, “not soluble”.

On to “MGSDKIHHHHHHMISVCIATYNGEKYLAEQLDSILLQVSEEDELIISDDGSTDHTLEILRTYAANYPQIQLLQGPGQGVIANFAFALTHTKGEVIFLADQDDVWLPNKVTTVTEYFETHPDIQVVISDLKIVDADLQVTNPSYFKFRKVKPGFWRNAIKSGYIGAGMAFRQEMKNVILPIPPEVPMHDMWIGLLAARKKQTGLIKEPLVLYRRHGANVSPIITKTSFQQKLNWRVNLLKALHQRLKEQR”, for which the “soluble on expression in E. coli” value was “not soluble”. To “MPMPNLPKELVEEILSFVPATYLKRLSATCKPWNRLIHNDKRFARKHYDNAAKEFLVFMMRKNFRIIRRGVNLHGADPSAEVKGELTLPDPYFKNSADEFHIDRVFHCDGLLLCTSKLERRMVVWNPLTGETKWIQTHEEGDNFFLGYSQEDKNISCKKSYKIMGFYRSGSKVWEYDFNSDSWRVLNGILPNWYFDKSYKCVSLKGNTYMLAGAVTDMGFDLSLQSYDFSTEKFAPVSLPVPSQARSLNGANRLSVVRGEKLALLYRRDKRSKAEIWVTNKIDDTTEGAVSWTKVLELDLSRELHALFTSNFLVDEEKKVFICCVSWKEDEDENKSNKVYIVGEDNIVKEIDSGEDATSGCEPTILSLYVPSLVYM” belongs “soluble”. Under “MNRWEKELDKYAELAVKVGVNIQPGQTLFVNAPLEAAPLVRKIAKTAYETGAKHVYVEWNDEALTYIKFHHAPEEAFSEYPMWRARAMEELAEQGAAFLSIYAPNPDLLKDVDPKRIATANKTAAQALANYRSAIMADRNCWSLISVPTPAWAQKVFGDLRDEEAIDKLWEAIFRITRIDHDDPIAAWRKHNDRLARIVDYLNNKQYKQLVYEAPGTNLTVELVDGHVWHGGAATSQSGVRFNPNIPTEEVFTMPHKDGVNGTVRNTKPLNYNGNVIDGFTLTFKDGQVVDFSAEQGYETLKHLLDTDDGARRLGEVALVPHQSPVSLSNLIFYNTLFDENAACHLALGKAYPTNIENGASLSKEELDRRGVNDSLVHVDFMIGSADLNIDGVTKDGKREPIFRSGNWAFELS” stands “not soluble”. To “MGSDKIHHHHHHMLYQGVSLILAPLLVFQGLNVRRTTPRLPEPEGERVGQTGANPALSLLILGDSAAAGVGVAFQQHALLGQVIEQLSPQLEFSYGLFAKTGSTTSTTLQALQEQIDIAHPILGQTHFDVIVTSLGVNDITSSISCEKWLLQQKALFELITKRYTPKLILVTALPPLGLFPALPHPLRWSLGQRANQFNRQLQQLLIKLNQQVDQPTDFRLIKLPLENPQPDITMLEFMRQVMASDGFHPGAPIYSAWANLVVEQIVGGIKSAAIA” belongs “not soluble”; to “MNSIHGHYHIQLSNYSAGENLQSATLTEGVIGAHRVKVETALSHSNLQKKLSATIKHNQSGRSMLDRKLTSDGKANQRSSFTFSMIMYRMIHFVLSTRVPAVRESVANYGGNINFKFAQTKGAFLHKIIKHSDTASGVCEALCAHWIRSHAQGQSLFDQLYVGGRKGKFQIDTLYSIKQLQIDGCKADVDQDEVTLDWFKKNGISERMIERHCLLRPVDVTGTTESEGLDQLLNAILDTHGIGYGYKKIHLSGQMSAHAIAAYVNEKSGVTFFDPNFGEFHFSDKEKFRKWFTNSFWGNSMYHYPLGVGQRFRVLTFDSKEV”, “not soluble”. “MVEEMNNEVTEMKSFSVGDVVSGKVTKVEDKQAFVDVGFKVDGIIPISELSSLHVEKVSDVLSEGDELELKVLKVEDDELILSKRAVQAEKAWETLQAALDSGEVIEAEVADVVKGGLVVDLGVRGFIPASLVERHYVEDFSDYKGRTLRLKVVELDKEANKLILSQRAVLDEEVEAKKKEVLASLQPGDVVEGTVQRLTDFGAFVDVGGVDGLVHISQLAHHRVETPAEVVKEGDAVKVKVLSVDPDSERVSLSIKETLPGPWEQVEGTIQPGDVIEGTVKRLVSFGAFVEVAPGVEGLVHISQIANRHIGTPGEVLSEGERVQAKVLDVNISEKRISLSIRELLDDAGSNQSDREVYESTNEESSGFSLGDMIGDELKKYKLEHHHHHH”: the “soluble on expression in E. coli” value is given as “soluble”. With “MEEKVEFILEVRSIPVYGDEFSPRLRKFFPIDYEPVERVTVPTSKKADYAVMISSNLKPFSIKEGDYILISLDDEPQEGDLVAVLVKDFRITVGRVKERQEDIFVVEVGNEVGIYRCFIFPYLDQLHRSSFELSFNPYVLGKITAILRKKPAH”, the “soluble on expression in E. coli” value is on record as “soluble”. Under “MGCVPRIEFGCSSQSLTLSWNLRAWNLCRLNTISHFQKLPYPLVASTRKHYKNSLLLKRFLVGVGTEESSLSEDLLDESLSRPLTSDELKSLLIDTERSKLVKKLSEANQQNRFLKRQEHEITNIKTELALMELEVQALVKLAEEIANLGIPQGSRKISGKYIQSHLLSRLDAVQKKMKEQIKGVEAAQSKEVHVFWIGMAESVQVMGSFDGWSQREDLSPEYSALFTKFSTTLFLRPGRYEMKFLVDGEWQISPEFPTSGEGLMENNVLVVE” stands “soluble”; under “MGSDKIHHHHHHMPSLFSLYRKIFFGRKPGWDQQPLPHIKVTAPHVTVSETKVSQYAQVCGFQFDGKVLPPTYLYVMAFRLHAVIFTHDGITFPLLGMIHLKNRIQVYRPVTVDETFSLECALTTSRETDSGLEFEFVSKAFVGEELVWESLSTYLYRIDVAGRRVRPPKAIDMAWETPQSWRLSEDLGRRYAKASGDYNLIHLHPVLSKRFGFDRVLAHGMWSKARCLAELMPSIGDRPFTVDVTFKLPLLMPADVGFGYEQNTDNMVFELRDSKGRRPHLSGDVQF”, “not soluble”; under “MSVKVIVTDMDGTFLNDAKTYNQPRFMAQYQELKKRGIKFVVASGNQYYQLISFFPELKDEISFVAENGALVYEHGKQLFHGELTRHESRIVIGELLKDKQLNFVACGLQSAYVSENAPEAFVALMAKHYHRLKPVKDYQEIDDVLFKFSLNLPDEQIPLVIDKLHIALDGIMKPVTSGFGFIDLIIPGLHKANGISRLLKRWDLSPQNVVAIGDSGNDAEMLKMARYSFAMGNAAENIKQIARYATDDNNHEGALNVIQAVLDNTSPFNS”, “not soluble”. Turning to “GPGSMLRHAARCFSPRQCYVSPRVMEAEYAVRGLIPARADEIKADLATGHGTYSFESLVYCNIGNPQSVGQMPLTFYRQVMVLVDAPFLLEDAEIVARLPEDAVARARRYLSEIGTGTGAYTESFGFRFARAAVAAHINELDHGVSPAATVNDICLTDGASMGAKLFLQLLVGGASDAVMIPVPQYPLYSAQIALLGGVKVPYGLHESEGWVMKLSDLVAAYERCVTESGATPRLFVCINPGNPTGNVLERCVMEDVVRFCHERGMLLLADEVYQENVYDTRRRFLSFREVVLGMPEPYCSETMLVSLHSTSKGVIGECGRRGGYFCMTNLPAALRQQVVKLCSINLCANVNGQLMTALMCSPPREGEASYALHRREYDEIFTGMKERAELLARELGAVRGLSCQPVEGAMYAFPRIVLPERYAQRNEELNAKEGRQLALDARWALELLESSGIVVVPGSGFGQEPGTLHFRITILPPLEQIDRMVRAIREFQDRIYEQYA”, the “soluble on expression in E. coli” value was “soluble”.

Regarding “MNNIDQLYTETKSMLSHIQNTPESDELLKQIEDFVATRSELIQEISLPLSEEERKQMKLILTWDQLIVKEMERLKQSIATELQQMKRKRVMHTTYLNPYNNITIDGTYYDKRKLEHHHHHH”, the “soluble on expression in E. coli” value is on record as “soluble”. Under “MGGDSKGTYCGAPILGPGSAPKLSTKTKFWRSSTTPLPPGTYEPAYLGGKDPRVKGGPSLQQVMRDQLKPFTEPRGKPPKPSVLEAAKKTIINVLEQTIDPPEKWSFTQACASLDKTTSSGHPHHMRKNDCWNGESFTGKLADQASKANLMFEGGKNMTPVYTGALKDELVKTDKIYGKIKKRLLWGSDLATMIRCARAFGGLMDELKAHCVTLPIRVGMNMNEDGPIIFERHSRYKYHYDADYSRWDSTQQRAVLAAALEIMVKFSSEPHLAQVVAEDLLSPSVVDVGDFKISINEGLPSGVPCTSQWNSIAHWLLTLCALSEVTNLSPDIIQANSLFSFYGDDEIVSTDIKLDPEKLTAKLKEYGLKPTRPDKTEGPLVISEDLNGLTFLRRTVTRDPAGWFGKLEQSSILRQMYWTRGPNHEDPSETMIPHSQRPIQLMSLLGEAALHGPAFYSKISKLVIAELKEGGMDFYVPRQEPMFRWMRFSDLSTWEGDRNLAPSFVNEDGVEVDKLAAALEHHHHHH” stands “soluble”; under “MGRIFLDHIGGTRLFSCANCDTILTNRSELISTRFTGATGRAFLFNKVVNLQYSEVQDRVMLTGRHMVRDVSCKNCNSKLGWIYEFATEDSQRYKEGRVILERALVRESEGFEEHVPSDNS”, “soluble”; under “DTVIAMDAYTPHDVTTQAQQLIDATPTAPALAPMTWPTPRVAARVRTQRDQRGRAPKPPRARGIDTIQHGRDDIDLRAISQLACTSQTQAIARIIATLEKRVDDHTPMITLVNDVLAEIETHGWAALSGQRAGSHAERHPGRVAMPRPQEVMAALNRYRGLSLVGSLDA”, “not soluble”. To “PYAKGNFKAYEQELIGRFKHGESIHSDSIRFPDSLRYKTLVTGRTVYGGGGIMPDLFIPTDTALFNKLHRELLNKGIFNRAVLKYVDAHRQKLRQRFPDRQSYATFSIPEELTESLKAFAEAEKITWSTELFAQAEELIKCQLHAYIARDILGENDFFYFFNRMDKEYIKALDLLNDPDEYKRLLGK” belongs “not soluble”. Under “MKILAIINPISGIGSKSNIPSLIADVFAHDPHELFITYSQRAGHARELAAQAVEKHYDCVIAVGGDGTVNEIAQSLRYTDVVLGIVPKGSGNGLARALKLPLTVGKALEVIRAGHVRTIDCCEADSRPFFCTCGLGFDAEVSKKFAQAGSRGPITYARTMIESYLQNEPKEYKLTIDGKSFEEKAFLVTCANAPQYGNNAYIAPLADLEDGKMDVVIIRPFNPLEAPQLALQLFTKRINSNSNLDTYKAENLIIERETEGVMHLDGDPVMFGKRIEIRTYGRSLKVFATETYT” stands “not soluble”.
